{"source": "patent US20050106100", "key": {"[1]": {"target": "T1, Ac-PLG˜Hphe-RLA-Ambh-Hynic", "T1 chain": "PLGXRLA"}, "[2]": {"target": "T2, Ac-POG˜Hphe-LTR-Ahxh-Hynic", "T2 chain": "PXGXLTR"}, "[3]": {"target": "T3, Ac-P-Cit-Abu˜LTA-Ahxh-Hynic (not fully specified)", "T3 chain": "PXXLTA"}, "[4]": {"target": "T4, Ac-PL-NLys˜S(OBn)-LL-Ahxh-Ac[C14] (not fully specified)", "T4 chain": "PLXSLL"}, "[5]": {"target": "T5, Ac-P-Cit-G˜Hphe-OL-Ahxh-Ac[C14] (not fully specified)", "T5 chain": "PXGXXL"}, "Ac-POG˜LLA-Ahxh-Hynic": {"target": "T6, Ac-POG˜LLA-Ahxh-Hynic", "T6 chain": "PXGLLA"}, "[6]": {"target": "T7, Ac-P-Cit-G˜Hphe-LA-Ahxh-Ac[C14] (not fully specified)", "T7 chain": "PXGXLA"}, "[7]": {"target": "T8, Ac-P-Cit-G˜S(OBn)-LA-Ahxh-Hynic (not fully specified)", "T8 chain": "PXGSLA"}, "Ac-POG˜Hphe-L-Ambh-Hynic": {"target": "T9, Ac-POG˜Hphe-L-Ambh-Hynic", "T9 chain": "PXGXL"}, "[8]": {"target": "T10, Ac-DArg-P-Aib-G˜Hphe-LA-Ahxh-Hynic (not fully specified)", "T10 chain": "RPXGXLA"}, "[9]": {"target": "T11, Ac-P-Cit-G˜Nle-LA-Ahxh-Hynic (not fully specified)", "T11 chain": "PXGXLA"}, "[10]": {"target": "T12, Ac-PLG˜Pabu-Cit-L-Ahxh-Ac[C14] (not fully specified)", "T12 chain": "PLGXXL"}, "[11]": {"target": "T13, Ac-P-Cit-Hse˜Hphe-SA-Ahxh-Hynic (not fully specified)", "T13 chain": "PXXXSA"}, "[12]": {"target": "T14, Ac-DAla-PRG˜Ile-LA-Ahxh-Hynic (not fully specified)", "T14 chain": "APRGILA"}, "Ac-LRY˜Cha-TA-Ahxh-Hynic": {"target": "T15, Ac-LRY˜Cha-TA-Ahxh-Hynic (not fully specified)", "T15 chain": "LRYXTA"}, "[13]": {"target": "T16, Ac-PLG˜L-Pya-L-Ahxh-Ac[C14] (not fully specified)", "T16 chain": "PLGLXL"}, "Ac-PLG˜LHL-Ahxh-Hynic": {"target": "T17, Ac-PLG˜LHL-Ahxh-Hynic", "T17 chain": "PLGLHL"}, "[14]": {"target": "T18, Ac-P-NLys-R˜LTA-Ahxh-Hynic (not fully specified)", "T18 chain": "PXRLTA"}, "Ac-P-Cit-G˜Hphe-LQ-Hynic": {"target": "T19, Ac-P-Cit-G˜Hphe-LQ-Hynic (not fully specified)", "T19 chain": "PXGXLQ"}, "[15]": {"target": "T20, Ac-P-DLeu-G˜LL-Ahxh-Hynic (not fully specified)", "T20 chain": "PLGLL"}, "[16]": {"target": "T21, Ac-P-Hcit-G˜Hphe-SA-Ahxh-Hynic (not fully specified)", "T21 chain": "PXGXSA"}, "[17]": {"target": "T22, Ac-P-Cit-G˜S(OBn)-LA-Ahxh-Ac[C14] (not fully specified)", "T22 chain": "PXGSLA"}, "[18]": {"target": "T23, Ac-NGlu-PLG˜Hphe-YL-Ahxh-Ac[C14] (not fully specified)", "T23 chain": "XPLGXYL"}, "Ac-PLG˜LL-Ahxh-Hynic": {"target": "T24, Ac-PLG˜LL-Ahxh-Hynic", "T24 chain": "PLGLL"}, "[19]": {"target": "T25, Ac-PLG˜S(OBn)-LL-Ahxh-Ac[C14] (not fully specified)", "T25 chain": "PLGSLL"}, "Ac-PLG˜LRA-Ahxh-Hynic": {"target": "T26, Ac-PLG˜LRA-Ahxh-Hynic (not fully specified)", "T26 chain": "PLGLRA"}, "Ac-PLG˜Hphe-YL-Hynic": {"target": "T27, Ac-PLG˜Hphe-YL-Hynic", "T27 chain": "PLGXYL"}, "[20]": {"target": "T28, Ac-NGlu-PLG˜Hphe-YL-Ambh-Hynic (not fully specified)", "T28 chain": "XPLGXYL"}}}
{"protein": "MMP-2 (protein) APSPIIKFPGDVAPKTDKELAVQYLNTFYGCPKESCNLFVLKDTLKKMQKFFGLPQTGDLDQNTIETMRKPRCGNPDVANYNFFPRKPKWDKNQITYRIIGYTPDLDPETVDDAFARAFQVWSDVTPLRFSRIHDGEADIMINFGRWEHGDGYPFDGKDGLLAHAFAPGTGVGGDSHFDDDELWTLGEGQVVRVKYGNADGEYCKFPFLFNGKEYNSCTDTGRSDGFLWCSTTYNFEKDGKYGFCPHEALFTMGGNAEGQPCKFPFRFQGTSYDSCTTEGRTDGYRWCGTTEDYDRDKKYGFCPETAMSTVGGNSEGAPCVFPFTFLGNKYESCTSAGRSDGKMWCATTANYDDDRKWGFCPDQGYSLFLVAAHEFGHAMGLEHSQDPGALMAPIYTYTKNFRLSQDDIKGIQELYGASPDIDLGTGPTPTLGPVTPEICKQDIVFDGIAQIRGEIFFFKDRFIWRTVTPRDKPMGPLLVATFWPELPEKIDAVYEAPQEEKAVFFAGNEYWIYSASTLERGYPKPLTSLGLPPDVQRVDAAFNWSKNKKTYIFAGDKFWRYNEVKKKMDPGFPKLIADAWNAIPDNLDAVVDLQGGGHSYFFKGAYYLKLENQSLKSVKFGSIKSDWLGC", "values": [{"measurement": "Kcat/Km", "setting": "[1]", "result": 197, "unit": "M⁻¹ s⁻¹"}, {"measurement": "Kcat/Km", "setting": "[2]", "result": "> 500000", "unit": "M⁻¹ s⁻¹"}, {"measurement": "Kcat/Km", "setting": "[3]", "result": 55400, "unit": "M⁻¹ s⁻¹"}, {"measurement": "Kcat/Km", "setting": "[4]", "result": 165000, "unit": "M⁻¹ s⁻¹"}, {"measurement": "Kcat/Km", "setting": "[5]", "result": 42500, "unit": "M⁻¹ s⁻¹"}, {"measurement": "Kcat/Km", "setting": "Ac-POG˜LLA-Ahxh-Hynic", "result": "> 500000", "unit": "M⁻¹ s⁻¹"}, {"measurement": "Kcat/Km", "setting": "[6]", "result": "> 750000", "unit": "M⁻¹ s⁻¹"}, {"measurement": "Kcat/Km", "setting": "[7]", "result": "> 250000", "unit": "M⁻¹ s⁻¹"}, {"measurement": "Kcat/Km", "setting": "Ac-POG˜Hphe-L-Ambh-Hynic", "result": 77700, "unit": "M⁻¹ s⁻¹"}, {"measurement": "Kcat/Km", "setting": "[8]", "result": 18600, "unit": "M⁻¹ s⁻¹"}, {"measurement": "Kcat/Km", "setting": "[9]", "result": 174000, "unit": "M⁻¹ s⁻¹"}, {"measurement": "Kcat/Km", "setting": "[10]", "result": 0, "unit": "M⁻¹ s⁻¹"}, {"measurement": "Kcat/Km", "setting": "[11]", "result": 91400, "unit": "M⁻¹ s⁻¹"}, {"measurement": "Kcat/Km", "setting": "[12]", "result": 130000, "unit": "M⁻¹ s⁻¹"}, {"measurement": "Kcat/Km", "setting": "Ac-LRY˜Cha-TA-Ahxh-Hynic", "result": 0, "unit": "M⁻¹ s⁻¹"}, {"measurement": "Kcat/Km", "setting": "[13]", "result": 93000, "unit": "M⁻¹ s⁻¹"}, {"measurement": "Kcat/Km", "setting": "Ac-PLG˜LHL-Ahxh-Hynic", "result": 73700, "unit": "M⁻¹ s⁻¹"}, {"measurement": "Kcat/Km", "setting": "[14]", "result": 0, "unit": "M⁻¹ s⁻¹"}, {"measurement": "Kcat/Km", "setting": "Ac-P-Cit-G˜Hphe-LQ-Hynic", "result": 171000, "unit": "M⁻¹ s⁻¹"}, {"measurement": "Kcat/Km", "setting": "[15]", "result": 5010, "unit": "M⁻¹ s⁻¹"}, {"measurement": "Kcat/Km", "setting": "[16]", "result": 293000, "unit": "M⁻¹ s⁻¹"}, {"measurement": "Kcat/Km", "setting": "[17]", "result": "> 500000", "unit": "M⁻¹ s⁻¹"}, {"measurement": "Kcat/Km", "setting": "[18]", "result": 351000, "unit": "M⁻¹ s⁻¹"}, {"measurement": "Kcat/Km", "setting": "Ac-PLG˜LL-Ahxh-Hynic", "result": "> 250000", "unit": "M⁻¹ s⁻¹"}, {"measurement": "Kcat/Km", "setting": "[19]", "result": 473000, "unit": "M⁻¹ s⁻¹"}, {"measurement": "Kcat/Km", "setting": "Ac-PLG˜LRA-Ahxh-Hynic", "result": "> 500000", "unit": "M⁻¹ s⁻¹"}, {"measurement": "Kcat/Km", "setting": "Ac-PLG˜Hphe-YL-Hynic", "result": 63200, "unit": "M⁻¹ s⁻¹"}]}
{"protein": "human MMP-9 (protein) MRTPRCGVPDLGRFQTFEGDLKWHHHNITYWIQNYSEDLPRAVIDDAFARAFALWSAVTPLTFTRVYSRDADIVIQFGVAEHGDGYPFDGKDGLLAHAFPPGPGIQGDAHFDDDELWSLGKGVVVPTRFGNADGAACHFPFIFEGRSYSACTTDGRSDGLPWCSTTANYDTDDRFGFCPSERLYTQDGNADGKPCQFPFIFQGQSYSACTTDGRSDGYRWCATTANYDRDKLFGFCPTRADSTVMGGNSAGELCVFPFTFLGKEYSTCTSEGRGDGRLWCATTSNFDSDKKWGFCPDQGYSLFLVAAHEFGHALGLDHSSVPEALMYPMYRFTEGPPLHKDDVNGIRHLYGPRPEPEPRPPTTTTPQPTAPPTVCPTGPPTVHPSERPTAGPTGPPSAGPTGPPTAGPSTATTVPLSPVDDACNVNIFDAIAEIGNQLYLFKDGKYWRFSEGRGSRPQGPFLIADKWPALPRKLDSVFEERLSKKLFFFSGRQVWVYTGASVLGPRRLDKLGLGADVAQVTGALRSGRGKMLLFSGRRLWRFDVKAQMVDPRSASEVDRMFPGVPLDTHDVFQYREKAYFCQDRFYWRVSSRSELNQVDQVGYVTYDILQCPED", "values": [{"measurement": "Kcat/Km", "setting": "[1]", "result": 4550, "unit": "M⁻¹ s⁻¹"}, {"measurement": "Kcat/Km", "setting": "[2]", "result": 105000, "unit": "M⁻¹ s⁻¹"}, {"measurement": "Kcat/Km", "setting": "[3]", "result": 77800, "unit": "M⁻¹ s⁻¹"}, {"measurement": "Kcat/Km", "setting": "[4]", "result": 271000, "unit": "M⁻¹ s⁻¹"}, {"measurement": "Kcat/Km", "setting": "[5]", "result": 28600, "unit": "M⁻¹ s⁻¹"}, {"measurement": "Kcat/Km", "setting": "Ac-POG˜LLA-Ahxh-Hynic", "result": 187000, "unit": "M⁻¹ s⁻¹"}, {"measurement": "Kcat/Km", "setting": "[6]", "result": 652000, "unit": "M⁻¹ s⁻¹"}, {"measurement": "Kcat/Km", "setting": "[7]", "result": "> 250000", "unit": "M⁻¹ s⁻¹"}, {"measurement": "Kcat/Km", "setting": "Ac-POG˜Hphe-L-Ambh-Hynic", "result": 22000, "unit": "M⁻¹ s⁻¹"}, {"measurement": "Kcat/Km", "setting": "[8]", "result": 0, "unit": "M⁻¹ s⁻¹"}, {"measurement": "Kcat/Km", "setting": "[9]", "result": 116000, "unit": "M⁻¹ s⁻¹"}, {"measurement": "Kcat/Km", "setting": "[10]", "result": 0, "unit": "M⁻¹ s⁻¹"}, {"measurement": "Kcat/Km", "setting": "[11]", "result": 38300, "unit": "M⁻¹ s⁻¹"}, {"measurement": "Kcat/Km", "setting": "[12]", "result": 61700, "unit": "M⁻¹ s⁻¹"}, {"measurement": "Kcat/Km", "setting": "Ac-LRY˜Cha-TA-Ahxh-Hynic", "result": 811, "unit": "M⁻¹ s⁻¹"}, {"measurement": "Kcat/Km", "setting": "[20]", "result": "> 100000", "unit": "M⁻¹ s⁻¹"}, {"measurement": "Kcat/Km", "setting": "[13]", "result": 162000, "unit": "M⁻¹ s⁻¹"}, {"measurement": "Kcat/Km", "setting": "Ac-PLG˜LHL-Ahxh-Hynic", "result": 156000, "unit": "M⁻¹ s⁻¹"}, {"measurement": "Kcat/Km", "setting": "[14]", "result": 0, "unit": "M⁻¹ s⁻¹"}, {"measurement": "Kcat/Km", "setting": "Ac-P-Cit-G˜Hphe-LQ-Hynic", "result": 79600, "unit": "M⁻¹ s⁻¹"}, {"measurement": "Kcat/Km", "setting": "[15]", "result": 438, "unit": "M⁻¹ s⁻¹"}, {"measurement": "Kcat/Km", "setting": "[16]", "result": 396000, "unit": "M⁻¹ s⁻¹"}, {"measurement": "Kcat/Km", "setting": "[17]", "result": "> 500000", "unit": "M⁻¹ s⁻¹"}, {"measurement": "Kcat/Km", "setting": "[18]", "result": 213000, "unit": "M⁻¹ s⁻¹"}, {"measurement": "Kcat/Km", "setting": "Ac-PLG˜LL-Ahxh-Hynic", "result": 218000, "unit": "M⁻¹ s⁻¹"}, {"measurement": "Kcat/Km", "setting": "[19]", "result": "> 500000", "unit": "M⁻¹ s⁻¹"}, {"measurement": "Kcat/Km", "setting": "Ac-PLG˜LRA-Ahxh-Hynic", "result": "> 500000", "unit": "M⁻¹ s⁻¹"}, {"measurement": "Kcat/Km", "setting": "Ac-PLG˜Hphe-YL-Hynic", "result": "> 100000", "unit": "M⁻¹ s⁻¹"}]}
